Assay results taken from IntAct's records for PubMed 24590075.

B1: Zinc finger MYND domain-containing protein 11 (Mus musculus), Q8R5C8 (parent)
chain: MARLTKRRQADTKAIQHLWAAIEIIRNQKQIANIDRITKYMSRVHGMHPKETTRQLSLAVKDGLIVETLTVGCKGSKAGIEQEGYWLPGDEIDWETETHDWYCFECHLPGEVLICDLCFRVYHSKCLSDEFRLRDSSSHWQCPVCRSIKKKHSNKQEMGTYLRFIVSRMKERAIDLNKKGKDSKHPMYRRLVHSAVDVPTIQEKVNEGKYRSYEEFKADAQLLLHNTVIFYGADSEQADIARMLYKDTCHELDELQLCKNCFYLSNARPDNWFCYPCIPNHELVWAKMKGFGFWPAKVMQKEDNQVDVRFFGHHHQRAWIPSENIQDITVNVHRLHVKRSMGWKKACDELELHQRFLREGRFWKSKNEDRGEEEAESSISSTSNEQLKVTQEPRAKKGRRNQSVEPKKEEPEPETEAVSSSQEIPTMPQPIERVSVSTQTKKLSASSPRMLHRSTQTTSDGVCQSMCHDKYTKIFNDFKDRMKSDHKRETERVVREALEKLRSEMEEEKRQAVNKAVASLQGDMDRKGKQLKEKCKEEFVEEIKKLAAQHKQLISQTKKKQWCYNCEEEAMYHCCWNTSYCSIKCQQEHWHAEHKRTCRRKR

Key:
h33_human H3-3A, P84243 [1] = variants of: B1; conditions: with h33_human H3-3A
h33_human H3-3A, P84243 [2] = variants of: B1; conditions: with h33_human H3-3A; remark: listed apart in the source

Variant | effect of a mutation on the interaction (h33_human H3-3A, P84243 [1]) | effect of a mutation on the interaction (h33_human H3-3A, P84243 [2])
N266A | disrupting interaction strength | decreasing interaction strength
E251A | disrupting interaction strength | decreasing interaction strength
W294A | disrupting interaction strength | decreasing interaction strength
F310A | disrupting interaction strength | decreasing interaction strength
D307N |  | decreasing interaction strength
F291A | disrupting interaction strength | 
R168A | disrupting interaction strength | decreasing interaction strength
